The source of these data is patent US20180343839A1 (BROAD INSTITUTE, published 2018).

The target in the assay is RAB28 (human, UniProt P51157 2-218). As to the kind of experiment: CRBN interaction study (HA-CRBN immunoprecipitation, SILAC MS); assay not given.

B1: HA-CRBN (hemagglutinin (HA)-tagged human CRBN) (other)
chain: MAGEGDQQDAAHNMGNHLPLLPESEEEDEMEVEDQDSKEAKKPNIINFDTSLPTSHTYLGADMEEFHGRTLHDDDSCQVIPVLPQVMMILIPGQTLPLQLFHPQEVSMVRNLIQKDRTFAVLAYSNVQEREAQFGTTAEIYAYREEQDFGIEIVKVKAIGRQRFKVLELRTQSDGIQQAKVQILPECVLPSTMSAVQLESLNKCQIFPSKPVSREDQCSYKWWQKYQKRKFHCANLTSWPRWLYSLYDAETLMDRIKKQLREWDENLKDDSLPSNPIDFSYRVAACLPIDDVLRIQLLKIGSAIQRLRCELDIMNKCTSLCCKQCQETEITTKNEIFSLSLCGPMAAYVNPHGYVHETLTVYKACNLNLIGRPSTEHSWFPGYAWTVAQCKICASHIGWKFTATKKDMSPQKFWGLTRSALLPTIPDTEDEISPDKVILCL
notes: the clone used (Broad ORF007943.1_s300c1); its numbering fits V387, Y383 and W385 as printed; also called HA-tagged CRBN; HA-CBRN; not shown: HA tag
Regarding B1, the binding result is given as “no binding”.
